Source: paper PMC8173005

Key:
[1] = molecular target: staphylococcal protein A ligand of the BabyBio A column (Bio-Works) (staphylococcal (so in the source)); experiment: affinity chromatography; dynamic binding capacity at 10% breakthrough; 1 mL columns of peptide-coupled agarose or BabyBio A; 1 mg/mL infliximab in 0.01% PBST pH 7.4 loaded at 0.5 mL/min; elution with 20 mM glycine-HCl pH 3.0 (peptide resins) or 100 mM Na-citrate pH 3.0 (BabyBio A)
[2] = molecular target: polyclonal human IgG (Octagam, Octapharma) (human); experiment: ELISA; phage ELISA; MaxiSorp wells coated with human polyclonal IgG (Octagam, 5 µg/mL), blocked with skimmed milk; peptide-displaying phagemid virions in solution, 2 × 10^9 virions per well or serial dilutions from 2.5 × 10^10 to 1.95 × 10^8 virions per well; detection with HRP-conjugated anti-M13 antibody and TMB; triplicate

| Molecule | amount of infliximab in the eluate [1] [mg] | dynamic binding capacity at 10% breakthrough [1] [mg/mL] | fold higher estimated affinity than the parent peptide min19Fc-Q6D [2] [fold] |
| --- | --- | --- | --- |
| infliximab (Remsima, Celltrion) (antibody) | 41.2 | 41.3 | – |
| GSYWYNVWF [peptide A displayed on pIT2-SL phagemid virions] | – | – | 16 |
